Measured values published in PMC9482650, “Quantitative fragmentomics allow affinity mapping of interactomes” (Nature Communications, 2022).

Key:
Test in all cases: holdup assay
Set-up in all cases: key: below the threshold = too weak to quantify, mostly under pKd 3.1 to 4
APBA3_1, O96018 = molecular target: T1, APBA3_1, O96018
T1 sequence (O96018 389-490, limits assumed, looked up): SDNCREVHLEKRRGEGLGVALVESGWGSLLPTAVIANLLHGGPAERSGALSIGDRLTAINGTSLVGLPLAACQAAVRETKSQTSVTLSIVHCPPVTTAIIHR

CARD11, Q9BXL7 = molecular target: T2, CARD11, Q9BXL7
T2 sequence (Q9BXL7 662-765, limits assumed, looked up): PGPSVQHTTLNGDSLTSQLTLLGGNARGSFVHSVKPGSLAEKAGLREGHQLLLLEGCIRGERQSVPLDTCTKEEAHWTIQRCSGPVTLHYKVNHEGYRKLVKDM

DFNB31_1, Q9P202 = molecular target: T3, DFNB31_1, Q9P202
T3 sequence (Q9P202 135-233, limits assumed, looked up): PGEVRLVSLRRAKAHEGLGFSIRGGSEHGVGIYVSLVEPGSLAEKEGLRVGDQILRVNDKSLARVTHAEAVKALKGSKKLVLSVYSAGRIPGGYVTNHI

DLG2_2, Q15700 = molecular target: DLG2_2, Q15700
DLG4_1, P78352 = molecular target: DLG4_1, P78352
FRMPD2_2, Q68DX3 = molecular target: FRMPD2_2, Q68DX3
GRASP, Q7Z6J2 = molecular target: GRASP, Q7Z6J2
GRID2IP_1, A4D2P6 = molecular target: GRID2IP_1, A4D2P6
GRIP1_3, Q9Y3R0 = molecular target: T4, GRIP1_3, Q9Y3R0
T4 sequence (Q9Y3R0 247-346, limits assumed, looked up): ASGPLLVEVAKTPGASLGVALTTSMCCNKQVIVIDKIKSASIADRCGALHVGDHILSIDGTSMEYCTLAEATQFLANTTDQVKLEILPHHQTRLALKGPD

GRIP2_4, Q9C0E4 = molecular target: GRIP2_4, Q9C0E4
GRIP2_7, Q9C0E4 = molecular target: GRIP2_7, Q9C0E4
HTRA1, Q92743 = molecular target: HTRA1, Q92743
HTRA4, P83105 = molecular target: T5, HTRA4, P83105
T5 sequence (P83105 378-476, limits assumed, looked up): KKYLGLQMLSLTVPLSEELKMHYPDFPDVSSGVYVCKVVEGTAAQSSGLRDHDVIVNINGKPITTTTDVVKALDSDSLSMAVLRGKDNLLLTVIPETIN

Inadl_2, Q8NI35 = molecular target: Inadl_2, Q8NI35
Inadl_6, Q8NI35 = molecular target: Inadl_6, Q8NI35
LDB3, O75112 = molecular target: LDB3, O75112
LIMK2, P53671 = molecular target: LIMK2, P53671
LIN7C, Q9NUP9 = molecular target: T6, LIN7C, Q9NUP9
T6 sequence (Q9NUP9 88-185, limits assumed, looked up): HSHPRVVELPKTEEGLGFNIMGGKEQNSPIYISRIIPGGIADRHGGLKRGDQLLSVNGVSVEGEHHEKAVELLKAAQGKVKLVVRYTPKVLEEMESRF

MAGI2_2, Q86UL8 = molecular target: MAGI2_2, Q86UL8
MAGI2_5, Q86UL8 = molecular target: MAGI2_5, Q86UL8
MAGI3_2, Q5TCQ9 = molecular target: MAGI3_2, Q5TCQ9
NHERF2_2, Q15599 = molecular target: NHERF2_2, Q15599
NHERF3_3, Q5T2W1 = molecular target: T7, NHERF3_3, Q5T2W1
T7 sequence (Q5T2W1 238-333, limits assumed, looked up): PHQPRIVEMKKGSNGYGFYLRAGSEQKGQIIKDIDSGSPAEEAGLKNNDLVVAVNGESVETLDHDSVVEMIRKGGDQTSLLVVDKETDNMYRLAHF

NHERF4_4, Q86UT5 = molecular target: NHERF4_4, Q86UT5
PARD3_3, Q8TEW0 = molecular target: PARD3_3, Q8TEW0
RAPGEF6, Q8TEU7 = molecular target: T8, RAPGEF6, Q8TEU7
T8 sequence (Q8TEU7 525-625, limits assumed, looked up): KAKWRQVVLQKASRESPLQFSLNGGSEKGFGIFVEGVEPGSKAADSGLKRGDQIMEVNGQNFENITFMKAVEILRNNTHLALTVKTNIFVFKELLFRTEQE

SHANK1, Q9Y566 = molecular target: T9, SHANK1, Q9Y566
T9 sequence (Q9Y566 658-767, limits assumed, looked up): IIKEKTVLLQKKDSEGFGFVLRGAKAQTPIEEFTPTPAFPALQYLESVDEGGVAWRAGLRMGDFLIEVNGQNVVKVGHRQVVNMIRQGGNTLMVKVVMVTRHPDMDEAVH

SNX27, Q96L92 = molecular target: SNX27, Q96L92
[1] = plain residues with an end cap or a label only (N-terminal biotin on a linker: ahx)
[2] = plain residues with an end cap or a label only (N-terminal biotin on a linker: ado-ado)

Inadl_2, Q8NI35, sequence (Q8NI35 238-335): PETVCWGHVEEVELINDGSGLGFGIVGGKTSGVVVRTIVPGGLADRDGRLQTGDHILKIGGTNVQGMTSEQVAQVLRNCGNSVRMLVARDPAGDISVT
Inadl_6, Q8NI35, sequence (Q8NI35 1058-1167): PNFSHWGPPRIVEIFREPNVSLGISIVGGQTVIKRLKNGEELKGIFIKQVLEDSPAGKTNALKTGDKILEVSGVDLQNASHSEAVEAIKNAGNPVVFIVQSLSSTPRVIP
GRIP2_7, Q9C0E4, sequence (Q9C0E4 934-1023): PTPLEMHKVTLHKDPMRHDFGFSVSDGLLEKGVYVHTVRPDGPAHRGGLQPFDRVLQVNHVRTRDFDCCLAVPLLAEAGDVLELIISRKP
MAGI3_2, Q5TCQ9, sequence (Q5TCQ9 398-503): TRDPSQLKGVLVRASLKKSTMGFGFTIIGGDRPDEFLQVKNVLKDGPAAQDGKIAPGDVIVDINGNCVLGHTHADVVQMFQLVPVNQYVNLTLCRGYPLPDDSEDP
DLG2_2, Q15700, sequence (Q15700 189-283): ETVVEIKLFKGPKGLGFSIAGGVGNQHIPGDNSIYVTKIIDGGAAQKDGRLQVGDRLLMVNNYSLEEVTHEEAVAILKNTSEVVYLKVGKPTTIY
MAGI2_2, Q86UL8, sequence (Q86UL8 410-522): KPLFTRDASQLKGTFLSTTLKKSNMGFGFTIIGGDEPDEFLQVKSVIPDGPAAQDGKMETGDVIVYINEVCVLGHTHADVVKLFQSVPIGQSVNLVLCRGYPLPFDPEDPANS
GRIP2_4, Q9C0E4, sequence (Q9C0E4 446-548): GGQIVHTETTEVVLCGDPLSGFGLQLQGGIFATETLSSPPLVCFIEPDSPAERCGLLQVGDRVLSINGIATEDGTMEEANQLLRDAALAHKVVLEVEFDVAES
NHERF2_2, Q15599, sequence (Q15599 142-238): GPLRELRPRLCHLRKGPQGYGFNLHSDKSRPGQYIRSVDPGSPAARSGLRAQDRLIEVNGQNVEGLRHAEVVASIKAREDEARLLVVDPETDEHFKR
PARD3_3, Q8TEW0, sequence (Q8TEW0 582-685): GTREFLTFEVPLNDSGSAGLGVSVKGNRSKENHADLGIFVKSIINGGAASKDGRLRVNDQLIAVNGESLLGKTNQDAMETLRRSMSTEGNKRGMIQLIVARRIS
FRMPD2_2, Q68DX3, sequence (Q68DX3 944-1038): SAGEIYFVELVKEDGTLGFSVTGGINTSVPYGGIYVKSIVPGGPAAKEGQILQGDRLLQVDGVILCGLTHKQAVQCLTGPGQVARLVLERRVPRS
NHERF4_4, Q86UT5, sequence (Q86UT5 464-550): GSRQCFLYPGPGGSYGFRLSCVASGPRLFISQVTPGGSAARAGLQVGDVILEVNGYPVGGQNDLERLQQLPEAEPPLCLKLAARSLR
GRID2IP_1, A4D2P6, sequence (A4D2P6 1-87): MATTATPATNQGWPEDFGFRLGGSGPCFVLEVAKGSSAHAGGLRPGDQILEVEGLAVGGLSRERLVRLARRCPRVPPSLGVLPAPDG
LDB3, O75112, sequence (O75112 1-94): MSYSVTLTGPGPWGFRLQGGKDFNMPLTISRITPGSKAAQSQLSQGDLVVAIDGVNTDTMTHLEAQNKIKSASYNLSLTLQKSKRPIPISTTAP
DLG4_1, P78352, sequence (P78352 62-152): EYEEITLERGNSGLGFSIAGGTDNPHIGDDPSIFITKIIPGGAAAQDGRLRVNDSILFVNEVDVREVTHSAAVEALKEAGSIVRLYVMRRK
MAGI2_5, Q86UL8, sequence (Q86UL8 915-1017): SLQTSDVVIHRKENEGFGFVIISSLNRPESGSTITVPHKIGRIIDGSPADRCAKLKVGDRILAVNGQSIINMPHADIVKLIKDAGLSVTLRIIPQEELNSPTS
GRASP, Q7Z6J2, sequence (Q7Z6J2 96-193): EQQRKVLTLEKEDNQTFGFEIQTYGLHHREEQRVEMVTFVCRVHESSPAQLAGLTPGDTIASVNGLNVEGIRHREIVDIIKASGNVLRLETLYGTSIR
LIMK2, P53671, sequence (P53671 143-248): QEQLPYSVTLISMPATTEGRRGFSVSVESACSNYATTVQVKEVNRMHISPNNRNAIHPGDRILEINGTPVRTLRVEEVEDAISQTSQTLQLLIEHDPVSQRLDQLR
HTRA1, Q92743, sequence (Q92743 360-477): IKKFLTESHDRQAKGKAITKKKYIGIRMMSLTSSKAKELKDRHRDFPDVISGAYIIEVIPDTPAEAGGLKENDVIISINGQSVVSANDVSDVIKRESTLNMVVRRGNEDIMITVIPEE

B1: FRMPD1, Q5SYB0 (peptide)
chain: TQKFRASTAL
pKd (APBA3_1, O96018; [1]): below the threshold
pKd (CARD11, Q9BXL7; [1]): below the threshold
pKd (DFNB31_1, Q9P202; [1]): below the threshold
pKd (DLG2_2, Q15700; [1]): 4.17
pKd (DLG4_1, P78352; [1]): 3.48
pKd (FRMPD2_2, Q68DX3; [1]): below the threshold
pKd (GRASP, Q7Z6J2; [1]): 4.56
pKd (GRID2IP_1, A4D2P6; [1]): below the threshold
pKd (GRIP1_3, Q9Y3R0; [1]): below the threshold
pKd (GRIP2_4, Q9C0E4; [1]): below the threshold
pKd (GRIP2_7, Q9C0E4; [1]): below the threshold
pKd (HTRA1, Q92743; [1]): below the threshold
pKd (HTRA4, P83105; [1]): below the threshold
pKd (Inadl_2, Q8NI35; [1]): below the threshold
pKd (Inadl_6, Q8NI35; [1]): below the threshold
pKd (LDB3, O75112; [1]): below the threshold
pKd (LIMK2, P53671; [1]): below the threshold
pKd (LIN7C, Q9NUP9; [1]): 3.52
pKd (MAGI2_2, Q86UL8; [1]): 4.18
pKd (MAGI2_5, Q86UL8; [1]): 3.59
pKd (MAGI3_2, Q5TCQ9; [1]): 4.28
pKd (NHERF2_2, Q15599; [1]): 4.03
pKd (NHERF3_3, Q5T2W1; [1]): below the threshold
pKd (NHERF4_4, Q86UT5; [1]): below the threshold
pKd (PARD3_3, Q8TEW0; [1]): below the threshold
pKd (RAPGEF6, Q8TEU7; [1]): below the threshold
pKd (SHANK1, Q9Y566; [1]): 4.62
pKd (SNX27, Q96L92; [1]): 4.03

B2: CACNG8, Q8WXS5 (peptide)
chain: NTLNRKTTPV
pKd (APBA3_1, O96018; [2]): below the threshold
pKd (CARD11, Q9BXL7; [2]): below the threshold
pKd (DFNB31_1, Q9P202; [2]): 3.95
pKd (DLG2_2, Q15700; [2]): 4.61
pKd (DLG4_1, P78352; [2]): 4.4
pKd (FRMPD2_2, Q68DX3; [2]): 3.85
pKd (GRASP, Q7Z6J2; [2]): 4.22
pKd (GRID2IP_1, A4D2P6; [2]): below the threshold
pKd (GRIP1_3, Q9Y3R0; [2]): below the threshold
pKd (GRIP2_4, Q9C0E4; [2]): 3.52
pKd (GRIP2_7, Q9C0E4; [2]): below the threshold
pKd (HTRA1, Q92743; [2]): below the threshold
pKd (HTRA4, P83105; [2]): 3.94
pKd (Inadl_2, Q8NI35; [2]): below the threshold
pKd (Inadl_6, Q8NI35; [2]): below the threshold
pKd (LDB3, O75112; [2]): below the threshold
pKd (LIMK2, P53671; [2]): below the threshold
pKd (LIN7C, Q9NUP9; [2]): below the threshold
pKd (MAGI2_2, Q86UL8; [2]): 4.93
pKd (MAGI2_5, Q86UL8; [2]): below the threshold
pKd (MAGI3_2, Q5TCQ9; [2]): 5.05
pKd (NHERF2_2, Q15599; [2]): below the threshold
pKd (NHERF3_3, Q5T2W1; [2]): below the threshold
pKd (NHERF4_4, Q86UT5; [2]): 3.99
pKd (PARD3_3, Q8TEW0; [2]): below the threshold
pKd (RAPGEF6, Q8TEU7; [2]): below the threshold
pKd (SHANK1, Q9Y566; [2]): below the threshold
pKd (SNX27, Q96L92; [2]): 4.98
